Data on 41 sequences can be found in the nanobody polyreactivity screen of Harvey et al. (2022).

The nature of this data set: yeast display, Sf9 membrane polyspecificity reagent, FACS + sequencing; frameworks hold sequencing errors. A digest of the protocol:
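Galactose-induced (36–48 hours) yeast carrying a synthetic nanobody display library were exposed to 10% biotinylated, detergent-solubilized Sf9 membrane reagent at 4 °C for 1 hour. FACS followed streptavidin microbead enrichment, using low and high (top ~1%) gates for expression (anti-HA) and reagent binding (streptavidin). Colony PCR, MiSeq 2 × 250 sequencing and CDR-length filtering followed. Labels for polyreactivity reflect the gate of origin.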
“QVQLVESGGGLVQAGGSLRLSCAASGRILASYAMGWYRQAPGKERELVAAISRSGGSTYYADSVKGRFTISRDNAKNTVYLQMNSLKPEDTAVYYCAAKYPQKTPVNSYGNSFYYWGQGTQVTVSS”: the “polyreactivity (PSR sort gate)” value is “high polyreactivity”.
The value for “QVQLVESGGGLVQAGGSLRLSCAASGRILAYNVMGWYRQAPGKEREFVASIRRTGVRTYYADSVKGRFTISRDNAKNTVYLQMNSLKPEDTAVYYCNAANFNFWDYYYWGQGTQVTVSS” was “low polyreactivity”; that for “QVQLVESGGGLVQAGGSLRLSCAASGRILAYYAMGWYRQAPGKERELVAAITSGGRTYYADSVKGRFTISRDNAKNTVYLQMNSLKPEDTAVYYCNAVYGYWYGSWGQGTQVTVSS” was “high polyreactivity”.
As for “QVQLVESGGGLVQAGGSLRLSCAASGRILAYYAMGWYRQAPGKERELVAAITSGGRTYYADSVKGRFTISRDNAKNTVYLQMNSLKPEDTPVYYCNAVYGYWYGSWGQGTQVTVSS”, the entry is “high polyreactivity”; as for “QVQLVESGGGLVQAGGSLRLSCAASGRILDYNAMGWYRQAPGKERELVADISGSGDSTYYADSVKGRFTISRDNAKNTVYLQMNSLKPEDTAVYYCAASGAWDWWLGPYDDYYWGQGTQVTVSS”, “low polyreactivity”; as for “QVQLVESGGGLVQAGGSLRLSCAASGRILDYYAMGWYRQAPGKERELVAAISRSGSDTYYADSVKGRFTISRDNAKNTVYLQMNSLKPEDTAVYYCAARWSYRSLARYNYWGQGTQVTVSS”, “low polyreactivity”.
The value for “QVQLVESGGGLVQAGGSLRLSCAASGRILEGYSMGWYRQAPGKERELVAAISFSTTTTYYADSVKGRFTISRDNAKNTVYVQMNILKPEDTAVYYCAADSQQSDYDYWGQGTQVTVSS” was “high polyreactivity”; that for “QVQLVESGGGLVQAGGSLRLSCAASGRILEVYAMGWYRQAPGKERELVAAIRWSDGNTYYADSVKGRFTISRDNAKNTVYLQMNSLKPEDTAVYYCAARTPGGYDWGQGTQVTVSS” was “high polyreactivity”; that for “QVQLVESGGGLVQAGGSLRLSCAASGRILGAYAMGWYRQAPGKERELVASISSGGRTYYADSVKGRFTISRDNAKNTVYLQMNSLKPEDTAVYYCNAKVRRRKYDYWGQGTQVTVSS” was “high polyreactivity”.
“QVQLVESGGGLVQAGGSLRLSCAASGRILGFYAMGWDRQAPGKERELVARINWSGTRTYYADSVKGRFTISRDNAKNTVYLQMNSLKPEDTAVYYCAAERYPYVVTYSKLDYWGQGTQVTVSS”: the “polyreactivity (PSR sort gate)” value was “high polyreactivity”.
In the case of “QVQLVESGGGLVQAGGSLRLSCAASGRILGKNTMGWYRQAPGKEREFVAAISASGGRTYYADSVKGRFTISRDNAKYTVYLQMNSLKPEDTAVYYCAAARSRYSYATGFDYWGQGTQVTVSS”, the “polyreactivity (PSR sort gate)” value is given as “high polyreactivity”.
For “QVQLVESGGGLVQAGGSLRLSCAASGRILGRKAMGWYRHAPGKEREYVAAISSGGNTYYADSVKGRFTISRDNAKNTVYLQMKSLKPEDTAVYYCNADPDTYVSTITHDSWGQGTQVTVSS”, the “polyreactivity (PSR sort gate)” value is on record as “low polyreactivity”.
As for “QVQLVESGGGLVQAGGSLRLSCAASGRILGRYAMGWYRQAPGKERELVAAITSGGNTTYADSVKGRFTISRDNAKNTVYLQMNSLKPEDTAVYYCAAYSYTQLNLMDYWGQGSQVTVSS”, the “polyreactivity (PSR sort gate)” value was “low polyreactivity”.
As for “QVQLVESGGGLVQAGGSLRLSCAASGRILHEYAMGWYRQAPGKERELVAAITFSGTSTYYADSVKGRFTISRDNAKNTVYLQMNSLKPEDTAVYYCAADTYGGSRDYWGQGTQVTVSS”, the entry is “low polyreactivity”.
For the sequence “QVQLVESGGGLVQAGGSLRLSCAASGRILHGYTMGWYRQAPGKERELVAAITSGGSTYYADSVKGRFTISRDNAKNTVYLQMNSLKPEDTAVYYCAAASYRHEEYYWGQGTQVTVSS”, the “polyreactivity (PSR sort gate)” value was “high polyreactivity”.
The value for “QVQLVESGGGLVQAGGSLRLSCAASGRILIVNTMGWYRQAPGKERELVAAISSGGTTYYADSVKGRFTISRDNAKNTVYLQMNSLKPEDTAVYYCAAKRAGAEYDYWGQGTQVTVSS” was “high polyreactivity”.
On to “QVQLVESGGGLVQAGGSLRLSCAASGRILKYYAMGWYRQAPGKERELVAAITSDVNTYYADSVKGRFTISRDNAKNTVYLQMNSLKPEDTAVYYCNADADDYRDYQDYDYWGQGTQVTVSS”, for which the “polyreactivity (PSR sort gate)” value is listed as “low polyreactivity”.
As for “QVQLVESGGGLVQAGGSLRLSCAASGRILLFYAMGWYRQAPGKERELVASIDYSGGSTTYADSVKGRFTISRDNAKNTVYLQMNRLKPEDTAVYYCNAEAWWYFWFDYWGQGTQVTVSS”, the “polyreactivity (PSR sort gate)” value is “low polyreactivity”.
As for “QVQLVESGGGLVQAGGSLRLSCAASGRILPRNAMGWYRQAPGKERELVAAISWDGGSTYYADSVKGRFTISRDNAKNTVYLPMIRLKPEDTAVYYCATDYPSLHRGMDYWGQGTQVTVSS”, the entry is “low polyreactivity”; as for “QVQLVESGGGLVQAGGSLRLSCAASGRILPRNAMGWYRQAPGKERELVATIDYSVGSTYYADSVKGRFTISRDNAKNTVYLQMNSLKPEDTAVYYCNAQVLVRPIQGEYGYWGRGTQVTVSS”, “low polyreactivity”; as for “QVQLVESGGGLVQAGGSLRLSCAASGRILPRNSMGWSRQAPGKERELVAGISSDGSTKYADSVKGRFTISRDNAKNTVYLQMNSLKPEETAVYYCAADVVYDPNLYGYWGQGTQVTVSS”, “low polyreactivity”.
The value for “QVQLVESGGGLVQAGGSLRLSCAASGRILPWYAMGWYRQAPWKERELVAGISSNGGSTYYADSVKGRFTSSRDNPKNTVYLQMNSLKTEDTAVYYCAARVWYWRHYPSDYWGQGTQVTVSS” was “high polyreactivity”.
In the case of “QVQLVESGGGLVQAGGSLRLSCAASGRILQYNVMGWYRQAPGKERELVATISSGGTTNYADSVKGRFTISRDNAKNTVYLQMNSLKPEDTAVYYCAAGLPRKRVQYDYWGQGTQVTVSS”, the “polyreactivity (PSR sort gate)” value was “low polyreactivity”.
The value for “QVQLVESGGGLVQAGGSLRLSCAASGRILRPNAMGWYRQAPGKEREMVAAISVSGGRTYYADSVKGRFTISRDNAKNTVYLQMNSLKPEDTAVYYCAAKYKRGYDYWGQGTQVTVSS” was “high polyreactivity”; that for “QVQLVESGGGLVQAGGSLRLSCAASGRILRTYAMGWYRQPPGKETELVAAITWSGASTYYADSVKGRFTISRDNAMNTVYLQMNSLKPEDTAVYYCNALSPGYRIYDYWGQGTQETVSS” was “high polyreactivity”.
As to “QVQLVESGGGLVQAGGSLRLSCAASGRILSSYAMGWYRKAPGKERELVAVISSGGNTYYADSVKGRFTISRDNAKNTVYLQMNSLKPEDTAVYYCAAVRHRQTYTKYNYWGQGTKVTVSS”, the “polyreactivity (PSR sort gate)” value is recorded as “high polyreactivity”.
With “QVQLVESGGGLVQAGGSLRLSCAASGRILSWYAMGWYRQAPGKVRELVAAIDSGGRTNYADSVKGRFTISRDNAKNTVYLQMNSLKPEDTAVYYCAKEGYWPRYWERYDYWGQGTQVTLSS”, the “polyreactivity (PSR sort gate)” value was “low polyreactivity”.
Take “QVQLVESGGGLVQAGGSLRLSCAASGRILSYYAMGWYRQAPGKERELVAAITRGGSTYYADSVKGRFTISRDNAKNTVYLQMNSLKPEDTAVYYCAARKKTTYRDWGRHDYWGQGTQVTVSS”: the “polyreactivity (PSR sort gate)” value is given as “high polyreactivity”.
As for “QVQLVESGGGLVQAGGSLRLSCAASGRILSYYAMGWYRQAPGKETELVATISASGGSTYYADSVKGRFTISRDNAKNTVYLQMNSLKPEDTAVYYCAAARVPAYYLRYLYRTTYDYWGQGTQVTVSS”, the “polyreactivity (PSR sort gate)” value is listed as “high polyreactivity”.
As to “QVQLVESGGGLVQAGGSLRLSCAASGRILTNYVMGWYRQAPGKERELVAAITDSGGITYADSVKGRFTISRDNAKNTVYLQMNSLKPEDTAVYYCAAVRFFLYYFDFSAYDYWGQGTQVTVSS”, the “polyreactivity (PSR sort gate)” value is “low polyreactivity”.
Take “QVQLVESGGGLVQAGGSLRLSCAASGRILTSNAMGWYRQAPGKERELVAAITYSGDSTYYADSVKGRFTISRDTAKNTVYLQMNSLKPEDTEVYYCAADVLKHFYSFGDERGFPFDYWGQGTQVTVSS”: the “polyreactivity (PSR sort gate)” value is recorded as “low polyreactivity”.
As for “QVQLVESGGGLVQAGGSLRLSCAASGRILTTYAMGWYRQAPGKERELVAAITTIGGRTYYADSVKGRFTISRDNAKNTVYLQMNSLKPEDTAVYYCAADVYYEYDYWGQGTQVTVSS”, the entry is “low polyreactivity”.
As for “QVQLVESGGGLVQAGGSLRLSCAASGRILTYYAMGWYRQAPGKERELVASISSNGGTYYADSVKGRFTISRDNAKNTVYLQMNSLKPEDTAVYYCNAKRVARYQYGASYNYWGQGTQVTVSS”, the entry is “high polyreactivity”.
“QVQLVESGGGLVQAGGSLRLSCAASGRILVRYAMGWYRQAPGKERELVAAISSSGSSTYYADSVKGRFTISRYNAKNTVYLQMNSLKPEDTAVYYCAADWEYVFYEYGYWGQGTQVTVSS”: the “polyreactivity (PSR sort gate)” value is on record as “low polyreactivity”.
Consider “QVQLVESGGGLVQAGGSLRLSCAASGRILVSYARGWYRQAPGKERELVAGITSGGDSTYYADSVKGRFTISRDNAKNTVYLQMNSLKPADTAVYSCAADRYGYRGRKNVRERYNYWGQGTQVTVSS”, for which the “polyreactivity (PSR sort gate)” value is reported as “high polyreactivity”.
On to “QVQLVESGGGLVQAGGSLRLSCAASGRILVVNAMGWYRQAPGKERELVAAISTTGGRTYYADSVKGRFTISRDNAKNTDYLQMISLKPEDTAVYYCAKDDGRFGRTHEHDYWGHGTQVTVSS”, for which the “polyreactivity (PSR sort gate)” value is “high polyreactivity”.
The value for “QVQLVESGGGLVQAGGSLRLSCAASGRILVVNAMGWYRQAPRKERELVAAISTTGGRTYYADSVKGRFTISRDNAKNTVYLQMKSLKPEDTAVYYCSKDDGRFGRTHEHDYWGHGTQVTVSS” was “high polyreactivity”.
As to “QVQLVESGGGLVQAGGSLRLSCAASGRILWTYAMGWYRQAPGKERELVADISRTGSTNYADSVKGRFTISRDNAKNTVYLQMNSLKPEDTAVYYCNADYDRSRVYYSVELYDYWGQGTQVTVSS”, the “polyreactivity (PSR sort gate)” value is listed as “low polyreactivity”.
As for “QVQLVESGGGLVQAGGSLRLSCAASGRILWYNAMGWYRQAPGKERELVAAINRGVSTNYADSVKGRFTISRDNAKNTVYLQMNSLKPEDTEVYYCAAVHDRLWYRSAYDYWRQGTQVTVSS”, the entry is “low polyreactivity”; as for “QVQLVESGGGLVQAGGSLRLSCAASGRILWYNAMGWYRQAPGKERELVAAITSDGSTDYADSVKGRFTISRDNAKNTVYLQMNSLKPEDTAVYYCAKLYIRQYPTWYRYYYWGQGTQVTVSS”, “high polyreactivity”; as for “QVQLVESGGGLVQAGGSLRLSCAASGRILYLYTMGWYRQAPGKERELVAAISRGGSTYYADSVKGRFTISRDNAKNTVYLQMNSLKPEDTAVYSCAADARGYQFNYWGQGTQVTVSS”, “low polyreactivity”.
